Assay results taken from publication PMC9482650, “Quantitative fragmentomics allow affinity mapping of interactomes” (Nature Communications, 2022).
Each block holds one binder with its values, some of them ahead of it.

What was measured:
Experiment in all cases: holdup assay
Design in all cases: key: below the threshold = too weak to quantify, mostly under pKd 3.1 to 4
APBA2_1, Q99767 = biological target: T1, APBA2_1, Q99767
T1 sequence (Q99767 563-664, limits assumed, looked up): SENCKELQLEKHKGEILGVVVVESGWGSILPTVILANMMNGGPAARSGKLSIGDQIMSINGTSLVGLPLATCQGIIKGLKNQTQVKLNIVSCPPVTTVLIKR

APBA2_2, Q99767 = biological target: T2, APBA2_2, Q99767
T2 sequence (Q99767 654-744, limits assumed, looked up): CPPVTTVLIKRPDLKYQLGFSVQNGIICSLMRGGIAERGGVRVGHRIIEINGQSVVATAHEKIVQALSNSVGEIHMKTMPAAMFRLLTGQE

ARHGEF11, O15085 = biological target: T3, ARHGEF11, O15085
T3 sequence (O15085 42-136, limits assumed, looked up): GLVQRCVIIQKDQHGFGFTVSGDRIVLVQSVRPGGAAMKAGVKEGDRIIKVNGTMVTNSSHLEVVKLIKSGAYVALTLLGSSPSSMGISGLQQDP

CASK, O14936 = biological target: CASK, O14936
DFNB31_1, Q9P202 = biological target: T4, DFNB31_1, Q9P202
T4 sequence (Q9P202 135-233, limits assumed, looked up): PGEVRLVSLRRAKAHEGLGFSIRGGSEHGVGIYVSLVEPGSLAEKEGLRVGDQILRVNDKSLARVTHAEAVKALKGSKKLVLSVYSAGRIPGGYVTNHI

DLG1_3, Q12959 = biological target: DLG1_3, Q12959
DLG3_3, Q92796 = biological target: T5, DLG3_3, Q92796
T5 sequence (Q92796 374-475, limits assumed, looked up): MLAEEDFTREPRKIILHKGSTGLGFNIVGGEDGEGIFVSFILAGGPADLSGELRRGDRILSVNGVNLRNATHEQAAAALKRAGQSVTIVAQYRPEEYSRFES

DLG4_1, P78352 = biological target: DLG4_1, P78352
GIPC2, Q8TF65 = biological target: GIPC2, Q8TF65
GORASP2, Q9H8Y8 = biological target: GORASP2, Q9H8Y8
GRID2IP_1, A4D2P6 = biological target: GRID2IP_1, A4D2P6
GRIP1_2, Q9Y3R0 = biological target: T6, GRIP1_2, Q9Y3R0
T6 sequence (Q9Y3R0 145-248, limits assumed, looked up): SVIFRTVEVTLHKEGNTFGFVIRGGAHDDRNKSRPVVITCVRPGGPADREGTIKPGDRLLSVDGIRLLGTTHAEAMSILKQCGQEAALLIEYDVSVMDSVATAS

GRIP1_3, Q9Y3R0 = biological target: T7, GRIP1_3, Q9Y3R0
T7 sequence (Q9Y3R0 247-346, limits assumed, looked up): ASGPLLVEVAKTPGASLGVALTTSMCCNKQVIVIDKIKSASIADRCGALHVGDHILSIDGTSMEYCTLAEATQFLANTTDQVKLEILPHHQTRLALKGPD

GRIP1_7, Q9Y3R0 = biological target: T8, GRIP1_7, Q9Y3R0
T8 sequence (Q9Y3R0 999-1096, limits assumed, looked up): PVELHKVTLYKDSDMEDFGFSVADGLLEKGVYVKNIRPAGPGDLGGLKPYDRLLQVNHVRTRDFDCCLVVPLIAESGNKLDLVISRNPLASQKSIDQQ

IL16_4, Q14005 = biological target: IL16_4, Q14005
LNX1_3, Q8TBB1 = biological target: LNX1_3, Q8TBB1
LNX2_3, Q8N448 = biological target: T9, LNX2_3, Q8N448
T9 sequence (Q8N448 463-564, limits assumed, looked up): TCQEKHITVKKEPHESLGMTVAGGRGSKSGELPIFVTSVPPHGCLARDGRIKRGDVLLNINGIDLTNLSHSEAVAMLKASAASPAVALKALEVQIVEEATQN

MAST2, Q6P0Q8 = biological target: MAST2, Q6P0Q8
MPP2, Q14168 = biological target: T10, MPP2, Q14168
T10 sequence (Q14168 180-250, limits assumed, looked up): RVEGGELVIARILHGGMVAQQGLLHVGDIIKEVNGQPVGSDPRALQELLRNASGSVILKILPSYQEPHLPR

MPP6, Q9NZW5 = biological target: T11, MPP6, Q9NZW5
T11 sequence (Q9NZW5 125-219, limits assumed, looked up): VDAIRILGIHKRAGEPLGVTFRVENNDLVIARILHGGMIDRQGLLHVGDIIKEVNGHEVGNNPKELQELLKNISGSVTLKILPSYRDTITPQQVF

NHERF3_4, Q5T2W1 = biological target: T12, NHERF3_4, Q5T2W1
T12 sequence (Q5T2W1 373-468, limits assumed, looked up): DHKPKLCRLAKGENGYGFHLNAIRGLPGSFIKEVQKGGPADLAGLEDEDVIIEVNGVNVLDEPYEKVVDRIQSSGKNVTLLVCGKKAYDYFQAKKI

NOS1, P29475 = biological target: NOS1, P29475
SNTB1, Q13884 = biological target: T13, SNTB1, Q13884
T13 sequence (Q13884 107-205, limits assumed, looked up): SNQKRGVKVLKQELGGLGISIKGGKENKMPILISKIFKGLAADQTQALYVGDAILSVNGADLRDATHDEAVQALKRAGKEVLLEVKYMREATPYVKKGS

TJP1_3, Q07157 = biological target: TJP1_3, Q07157
[1] = plain residues with an end cap or a label only (N-terminal biotin on a linker: ahx)
[2] = plain residues with an end cap or a label only (N-terminal biotin on a linker: ado-ado)

Sequence of MAST2, Q6P0Q8 (Q6P0Q8 1099-1202): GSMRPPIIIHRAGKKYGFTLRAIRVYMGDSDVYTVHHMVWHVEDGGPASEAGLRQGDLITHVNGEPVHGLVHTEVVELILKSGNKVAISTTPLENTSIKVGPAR
Sequence of DLG4_1, P78352 (P78352 62-152): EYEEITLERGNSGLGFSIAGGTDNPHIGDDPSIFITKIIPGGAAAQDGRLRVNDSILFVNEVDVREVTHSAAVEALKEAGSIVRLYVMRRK
Sequence of NOS1, P29475 (P29475 9-101): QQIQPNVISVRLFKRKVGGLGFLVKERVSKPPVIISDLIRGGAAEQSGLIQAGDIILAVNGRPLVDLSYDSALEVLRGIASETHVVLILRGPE
Sequence of GRID2IP_1, A4D2P6 (A4D2P6 1-87): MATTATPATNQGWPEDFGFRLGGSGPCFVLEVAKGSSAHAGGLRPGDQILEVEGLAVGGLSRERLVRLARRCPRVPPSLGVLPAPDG
Sequence of DLG1_3, Q12959 (Q12959 457-571): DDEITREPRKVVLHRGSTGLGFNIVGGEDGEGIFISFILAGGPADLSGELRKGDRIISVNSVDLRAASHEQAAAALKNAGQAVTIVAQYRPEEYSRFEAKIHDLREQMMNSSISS
Sequence of IL16_4, Q14005 (Q14005 1229-1329): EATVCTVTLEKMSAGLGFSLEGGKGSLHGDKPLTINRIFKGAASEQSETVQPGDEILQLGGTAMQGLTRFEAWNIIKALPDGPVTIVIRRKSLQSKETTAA
Sequence of TJP1_3, Q07157 (Q07157 416-512): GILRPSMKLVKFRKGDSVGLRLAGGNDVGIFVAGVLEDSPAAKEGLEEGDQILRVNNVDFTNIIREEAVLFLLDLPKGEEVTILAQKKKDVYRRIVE
Sequence of CASK, O14936 (O14936 487-570): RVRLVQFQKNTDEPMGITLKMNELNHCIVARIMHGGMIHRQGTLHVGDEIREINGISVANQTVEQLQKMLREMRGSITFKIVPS
Sequence of GIPC2, Q8TF65 (Q8TF65 112-203): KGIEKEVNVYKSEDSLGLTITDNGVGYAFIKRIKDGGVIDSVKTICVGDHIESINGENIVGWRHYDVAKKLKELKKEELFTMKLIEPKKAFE
Sequence of LNX1_3, Q8TBB1 (Q8TBB1 500-596): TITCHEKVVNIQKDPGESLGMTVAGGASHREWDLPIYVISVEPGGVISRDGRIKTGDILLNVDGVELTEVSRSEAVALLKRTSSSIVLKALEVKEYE

pKd (APBA2_1, Q99767; [1]): below the threshold | pKd (APBA2_2, Q99767; [1]): below the threshold | pKd (ARHGEF11, O15085; [1]): 4.3 | pKd (CASK, O14936; [1]): below the threshold | pKd (DFNB31_1, Q9P202; [1]): 3.88 | pKd (DLG1_3, Q12959; [1]): 3.76 | pKd (DLG3_3, Q92796; [1]): 3.97 | pKd (DLG4_1, P78352; [1]): 4.52 | pKd (GIPC2, Q8TF65; [1]): 4.26 | pKd (GORASP2, Q9H8Y8; [1]): 3.75 | pKd (GRID2IP_1, A4D2P6; [1]): below the threshold | pKd (GRIP1_2, Q9Y3R0; [1]): below the threshold | pKd (GRIP1_3, Q9Y3R0; [1]): below the threshold | pKd (GRIP1_7, Q9Y3R0; [1]): 3.49 | pKd (IL16_4, Q14005; [1]): below the threshold | pKd (LNX1_3, Q8TBB1; [1]): below the threshold | pKd (LNX2_3, Q8N448; [1]): 3.63 | pKd (MAST2, Q6P0Q8; [1]): 4.68 | pKd (MPP2, Q14168; [1]): below the threshold | pKd (MPP6, Q9NZW5; [1]): below the threshold | pKd (NHERF3_4, Q5T2W1; [1]): 3.5 | pKd (NOS1, P29475; [1]): 3.66 | pKd (SNTB1, Q13884; [1]): 5.22 | pKd (TJP1_3, Q07157; [1]): below the threshold
Binder: QDEKVKESYV [ABCA1, O95477]

pKd (APBA2_1, Q99767; [2]): below the threshold | pKd (APBA2_2, Q99767; [2]): below the threshold | pKd (ARHGEF11, O15085; [2]): below the threshold | pKd (CASK, O14936; [2]): below the threshold | pKd (DFNB31_1, Q9P202; [2]): 4.29 | pKd (DLG1_3, Q12959; [2]): 3.91 | pKd (DLG3_3, Q92796; [2]): 3.98 | pKd (DLG4_1, P78352; [2]): below the threshold | pKd (GIPC2, Q8TF65; [2]): below the threshold | pKd (GORASP2, Q9H8Y8; [2]): below the threshold | pKd (GRID2IP_1, A4D2P6; [2]): below the threshold | pKd (GRIP1_2, Q9Y3R0; [2]): below the threshold | pKd (GRIP1_3, Q9Y3R0; [2]): below the threshold | pKd (GRIP1_7, Q9Y3R0; [2]): below the threshold | pKd (IL16_4, Q14005; [2]): below the threshold | pKd (LNX1_3, Q8TBB1; [2]): below the threshold | pKd (LNX2_3, Q8N448; [2]): below the threshold | pKd (MAST2, Q6P0Q8; [2]): 4.72 | pKd (MPP2, Q14168; [2]): below the threshold | pKd (MPP6, Q9NZW5; [2]): below the threshold | pKd (NHERF3_4, Q5T2W1; [2]): below the threshold | pKd (NOS1, P29475; [2]): 3.62 | pKd (SNTB1, Q13884; [2]): 4.03 | pKd (TJP1_3, Q07157; [2]): below the threshold
Binder: NISYRRESAI [KCNJ4, P48050]

pKd (APBA2_1, Q99767; [2]): below the threshold | pKd (APBA2_2, Q99767; [2]): 3.63 | pKd (ARHGEF11, O15085; [2]): 4.2 | pKd (CASK, O14936; [2]): 3.59 | pKd (DFNB31_1, Q9P202; [2]): 3.67 | pKd (DLG1_3, Q12959; [2]): 4 | pKd (DLG3_3, Q92796; [2]): 3.81 | pKd (DLG4_1, P78352; [2]): 4.01 | pKd (GIPC2, Q8TF65; [2]): 3.74 | pKd (GORASP2, Q9H8Y8; [2]): 3.98 | pKd (GRID2IP_1, A4D2P6; [2]): 3.72 | pKd (GRIP1_2, Q9Y3R0; [2]): 3.67 | pKd (GRIP1_3, Q9Y3R0; [2]): below the threshold | pKd (GRIP1_7, Q9Y3R0; [2]): 3.67 | pKd (IL16_4, Q14005; [2]): below the threshold | pKd (LNX1_3, Q8TBB1; [2]): below the threshold | pKd (LNX2_3, Q8N448; [2]): 3.78 | pKd (MAST2, Q6P0Q8; [2]): 4.01 | pKd (MPP2, Q14168; [2]): below the threshold | pKd (MPP6, Q9NZW5; [2]): below the threshold | pKd (NHERF3_4, Q5T2W1; [2]): below the threshold | pKd (NOS1, P29475; [2]): 4.17 | pKd (SNTB1, Q13884; [2]): 3.75 | pKd (TJP1_3, Q07157; [2]): 3.65
Binder: EIPAQSPTCV [FZD10, Q9ULW2]
